Consider 2 molecules from patent US20250026841A1.

The target in this assay is p95HER2 expressed on cells (p95HER2-HEK293, p95HER2-expressing NCI-H292) (human) (UniProt P04626). The assay can be described thus: flow cytometry on p95HER2-expressing NCI-H292 cells, ug/mL is the unit of the x axis. On the technique in general: In flow cytometry, cells or beads pass a laser one at a time.

B1: anti-p95HER2 antibody clone R4-5 (antibody, human IgG1, kappa, V domains shown)
VH: QITLKESGPALVKPTQTLTLTCTFSGFSLSTSGVGVGWIRQPPGKALEWLALIYWDDDKRYSPSLKSRLTITKDTSKNQVVLTMTNMDPVDTATYYCAHSRLPYNSHGYWGQGTTVTVSS
VL: DIQMTQSPSSLSASVGDRVTITCQASQAIGNYLSWYQQKPGRAPKLLIYAASTLHSGVPSRFSGSGSGTDFTLTITSLQPDDFATYYCQQSYSVPVTFGLGTKLEIKR
On to B1, for which the concentration giving a half-maximal response (EC50) is 0.399 µg/mL.

B2: anti-p95HER2 antibody clone R4-15 (antibody, human IgG1, V domains shown)
VH: QITLKESGPTLVKPTQTLTLTCTFSGFSLSSGGVGVGWIRQPPGKALEWLALIYWDDDKRYSPSLKSRLTITKDTSKKQVVLTMTNMDPVDTATYYCAHLDYPENYFDQWGQGTLVTVSS
VL: DIQMTQSPSSLSASVGDRVTFTCRASQSISTYLNWYQQKPGKAPKLLIYAASTLQSGVPSRFSGSGSGTDFTLAISSLQPEDFATYFCQQSYSFPTFGQGTRLEIKR
With B2, the half-maximal effective concentration (EC50) stood at 0.0659 µg/mL. Against the preceding molecule, the EC50 is about 6.1-fold lower.

As usually defined, the EC50 is the concentration at which the effect is half-maximal. High values mean lower potency in that assay, low ones higher potency in that assay.
